The text below walks through data of patent publication EP4700044A1, “PROTEIN ANALOGUE AND USE THEREOF” (Shanghai Duomirui Biotechnology., Ltd., priority 2023, dated 2024).

Data set [1] in a line: pharmacokinetic test in mice. It is filed as in vivo. To be noted: 1 mg/kg, subcutaneous injection, plasma, human FGF21 ELISA. As to the method:
The pharmacokinetic properties of protein analogs can be tested in mice or minpigs.
Mice experiment (N = 3): The injection dose was 1 mg/kg, and the injection method was subcutaneous injection. The blood-collection time points for plasma samples were 0.08, 0.25, 0.5, 1, 2, 4, 6, 8, 12, 24, 48, and 72 hours. The blood was collected into EDTA·2K-coated test tubes (which must be temporarily stored on ice) and centrifuged at 1200 × g for 10 minutes at 4°C. Subsequently, the plasma was transferred to Micronic tubes and stored at -20°C. The human FGF21 detection ELISA kit (RD191108200R) produced by Biovendor was used to monitor the blood drug concentration.

Data set [2] addresses T1, FGFR1c and the cofactor β-Klotho (Homo sapiens, UniProt P11362+Q86Z14).
T1 construct: host or cells: iLite FGF21 assay ready cells (genetically engineered reporter gene cell line)
Nature of the data set: dual-luciferase reporter gene assay in iLite FGF21 assay ready cells. Conditions: Example 6, four-parameter fitting. In kind it is cell-based. An excerpt: iLite FGF21 assay ready cells (purchased from SAVR) is a genetically engineered reporter gene cell line that responds to signals downstream to FGF21 agonism through the expression of firefly luciferase. The receptor FGFR1c and the cofactor β-Klotho were co-overexpressed on the surface of iLite FGF21 assay ready cells and have undergone genetic optimization to enhance sensitivity, such that FGF21 will cause an increase in luciferase expression in a dose-response manner. The luciferase activity detection kit was purchased from Promega (catalog number #E2980).
iLite FGF21 assay ready cells were cultured adherently in basal medium (DMEM Gluta Max, purchased from Gibco) containing 10% fetal bovine serum (FBS, purchased from Gibco) and 1% penicillin/streptomycin (purchased from Gibco). For the activity determination experiment, […] cells per well and test samples such as FGF21 mutant proteins and FGF21 conjugate molecules modified with albumin-binding agent were added to all-white 96-well culture plates (purchased from Corning), and the chemiluminescence values were detected in a microplate reader according to the instructions of the luciferase activity detection kit. Finally, the half-maximal effective concentration (EC50) values of the tested samples were obtained by means of four-parameter fitting.
A general note: In a reporter assay the amount or activity of a reporter protein is the signal.

Positions count from the first letter of the chain named.

T1 sequence (P11362 22-822): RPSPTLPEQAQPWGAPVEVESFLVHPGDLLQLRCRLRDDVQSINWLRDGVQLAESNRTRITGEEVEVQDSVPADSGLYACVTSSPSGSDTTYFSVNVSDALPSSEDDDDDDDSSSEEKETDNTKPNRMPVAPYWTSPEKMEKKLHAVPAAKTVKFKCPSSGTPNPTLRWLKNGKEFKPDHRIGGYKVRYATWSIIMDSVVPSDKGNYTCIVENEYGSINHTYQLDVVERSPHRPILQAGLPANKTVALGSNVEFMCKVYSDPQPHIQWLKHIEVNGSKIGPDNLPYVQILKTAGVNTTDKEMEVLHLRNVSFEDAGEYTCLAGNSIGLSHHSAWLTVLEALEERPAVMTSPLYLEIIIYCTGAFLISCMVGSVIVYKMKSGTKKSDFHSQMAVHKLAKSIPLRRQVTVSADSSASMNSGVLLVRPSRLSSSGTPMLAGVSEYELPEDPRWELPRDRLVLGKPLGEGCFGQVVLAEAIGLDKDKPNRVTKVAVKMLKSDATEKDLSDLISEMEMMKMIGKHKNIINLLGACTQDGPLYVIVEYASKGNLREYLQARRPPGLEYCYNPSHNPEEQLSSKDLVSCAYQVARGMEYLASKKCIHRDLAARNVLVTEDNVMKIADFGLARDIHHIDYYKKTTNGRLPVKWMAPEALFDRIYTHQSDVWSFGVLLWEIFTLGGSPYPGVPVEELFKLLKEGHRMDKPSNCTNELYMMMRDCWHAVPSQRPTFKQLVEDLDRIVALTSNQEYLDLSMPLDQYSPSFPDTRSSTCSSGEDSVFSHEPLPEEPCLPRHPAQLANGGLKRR
T1 sequence (Q86Z14 whole entry): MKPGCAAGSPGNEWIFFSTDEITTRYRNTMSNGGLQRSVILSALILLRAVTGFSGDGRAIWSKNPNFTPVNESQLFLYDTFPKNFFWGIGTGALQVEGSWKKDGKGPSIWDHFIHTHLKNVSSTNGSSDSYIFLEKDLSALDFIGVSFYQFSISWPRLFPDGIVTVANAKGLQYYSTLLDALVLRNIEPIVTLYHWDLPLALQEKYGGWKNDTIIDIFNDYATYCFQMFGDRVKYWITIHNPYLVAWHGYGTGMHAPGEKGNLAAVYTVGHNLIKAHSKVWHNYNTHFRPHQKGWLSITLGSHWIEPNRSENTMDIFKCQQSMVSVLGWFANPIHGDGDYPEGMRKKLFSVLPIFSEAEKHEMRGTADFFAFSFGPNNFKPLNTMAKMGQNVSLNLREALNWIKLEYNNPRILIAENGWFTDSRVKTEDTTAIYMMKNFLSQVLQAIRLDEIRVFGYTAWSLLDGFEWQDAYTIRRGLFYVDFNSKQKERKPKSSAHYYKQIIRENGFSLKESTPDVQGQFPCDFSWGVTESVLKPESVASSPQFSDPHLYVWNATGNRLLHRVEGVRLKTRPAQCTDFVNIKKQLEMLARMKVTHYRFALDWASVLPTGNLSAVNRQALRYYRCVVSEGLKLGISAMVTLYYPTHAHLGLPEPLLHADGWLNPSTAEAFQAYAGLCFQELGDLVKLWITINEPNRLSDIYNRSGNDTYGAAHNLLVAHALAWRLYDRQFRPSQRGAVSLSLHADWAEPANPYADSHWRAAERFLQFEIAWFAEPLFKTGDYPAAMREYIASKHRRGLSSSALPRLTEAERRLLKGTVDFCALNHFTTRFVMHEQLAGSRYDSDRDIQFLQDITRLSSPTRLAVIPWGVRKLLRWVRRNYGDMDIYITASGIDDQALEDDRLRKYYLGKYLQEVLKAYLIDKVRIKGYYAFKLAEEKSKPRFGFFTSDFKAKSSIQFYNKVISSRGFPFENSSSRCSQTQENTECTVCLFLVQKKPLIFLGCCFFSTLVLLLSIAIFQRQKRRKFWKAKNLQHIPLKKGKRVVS

B1: Compound 5.7: FGF21D46C mutant (SEQ NO: 7) modified by the albumin-binding agent of Example 2.2 (conjugate)
chain: HPIPDSSPLLQFGGQVRQRYLYTDDAQQTEAHLEIREDGTVGGAACQSPESLLQLKALKPGVIQILGVKTSRFLCQRPDGALYGSLHFDPEACSFRERLLEDGYNVYQSEAHGLPLHLPGNKSPHRDPAPRGPARFLPLPGLPPAPPEPPGILAPQPPDVGSSDPLSMVGGSQGRSPSYES
modifications: albumin-binding agent conjugated
B1 gave a half-life in data set [1] of 15.9 h. The molecule further registered an EC50 in data set [2] of 1.06 nM.

B2: Compound 5.15: FGF21H125C mutant (SEQ NO: 9) modified by the albumin-binding agent of Example 2.4 (conjugate)
chain: B1 chain with C46D, H125C
modifications: albumin-binding agent of Example 2.4
On to B2, for which the half-life in data set [1] came out at 14.1 h. In data set [2], this molecule came in with a half-maximal effective concentration (EC50) of 0.47 nM.

As a reminder, the half-life is the time needed for the level to fall by half in the phase considered. Higher therefore signals slow decline. The term EC50 denotes the concentration giving half of the maximal effect.
